For the data set, the target named is T1, H3K9me2 peptide.
T1 chain: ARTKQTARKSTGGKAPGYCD

B1: SUV39H1 (protein)
chain: EVEYLCDYKKIREQEYYLVKWRGYPDSESTWEPRQNLKCVRILKQFHKDLERELLRRHHRSKTPRHLDPSLANYLVQKAKQRRALRRWEQELNAKRSHLGRITVENEVDLDGPPRAFVYINEYRVGEGITLNQVAVGCECQDCLWAPTGGCCPGASLHKFAYNDQGQVRLRAGLPIYECNSRCRCGYDCPNRVVQKGIRYDLCIFRTDDGRGWGVRTLEKIRKNSFVMEYVGEIITSEEAERRGQIYDRQGATYLFDLDYVEDVYTVDAAYYGNISHFVNHSCDPNLQVYNVFIDNLDERLPRIAFFATRTIRAGEELTFDYNMQVDPVDMESTRMDSNFGLAGLPGSPKKRVRIECKCGTESCRKYLF
Take B1: the “histone methyltransferase activity (H3K9me3 product detected by ELISA with 309M3-A)” value is “activity of the HMT SUV39H1 and its inhibition by an HMT inhibitor, chaetocin (Greiner et al., 2005), were clearly observed with 309M3-A”.

The values are drawn from patent publication US20160130329.
